Data on one molecule can be found in PMC10998593.

For the data set, the target named is GST-NSUN5 (UniProt Q96P11 1-429). Briefly: EMSA. (In general: In EMSA bound probe runs differently from free probe, usually more slowly.)
Sequence of GST-NSUN5 (Q96P11 whole entry): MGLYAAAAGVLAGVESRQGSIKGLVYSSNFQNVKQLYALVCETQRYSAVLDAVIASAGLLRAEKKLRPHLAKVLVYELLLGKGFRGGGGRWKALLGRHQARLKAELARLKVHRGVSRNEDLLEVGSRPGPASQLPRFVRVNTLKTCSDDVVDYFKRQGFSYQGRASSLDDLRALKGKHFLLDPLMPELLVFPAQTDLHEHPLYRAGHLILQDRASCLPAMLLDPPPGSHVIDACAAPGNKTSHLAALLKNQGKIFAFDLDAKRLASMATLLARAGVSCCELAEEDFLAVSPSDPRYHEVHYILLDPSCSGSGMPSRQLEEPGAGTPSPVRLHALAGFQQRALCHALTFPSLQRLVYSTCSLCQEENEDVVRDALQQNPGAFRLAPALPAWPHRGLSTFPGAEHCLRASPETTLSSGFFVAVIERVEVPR

Turning to GUCCUUCGGGCUGGUGACAGGG (ssRNA) [Probe1 (Oligo 1), CTNNB1], the binding result was “binds”.
